Assay results as given in paper PMC9569306.
Each block holds one substance with its values, some of them ahead of it.

Tests used:
[1] = molecular target: [FeFe]-hydrogenase HydA1 from Chlamydomonas reinhardtii (C. reinhardtii)
[2] = molecular target: [FeFe]-hydrogenase HydA2 from Chlamydomonas reinhardtii (C. reinhardtii)
[3] = molecular target: ferredoxin-NADP+ oxidoreductase (FNR) from Chlamydomonas reinhardtii (C. reinhardtii) (UniProt P53991)
[4] = molecular target: [FeFe]-hydrogenase HydA1 from Chlamydomonas reinhardtii (C. reinhardtii); remark: listed apart in the source
[5] = molecular target: ferredoxin-NADP+ oxidoreductase (FNR) from Chlamydomonas reinhardtii (C. reinhardtii) (UniProt P53991); remark: listed apart in the source

Chain of UniProt P53991 (P53991 36-354): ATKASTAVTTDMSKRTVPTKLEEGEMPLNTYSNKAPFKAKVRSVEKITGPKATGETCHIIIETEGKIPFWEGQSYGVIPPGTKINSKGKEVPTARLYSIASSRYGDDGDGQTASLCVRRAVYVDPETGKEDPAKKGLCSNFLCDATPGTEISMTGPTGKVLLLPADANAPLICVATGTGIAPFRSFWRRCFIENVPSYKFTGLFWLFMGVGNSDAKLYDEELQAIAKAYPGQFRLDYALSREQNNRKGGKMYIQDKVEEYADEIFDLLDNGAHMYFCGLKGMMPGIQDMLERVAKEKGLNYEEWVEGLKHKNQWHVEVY

Substance: ferredoxin Fdx2 from Chlamydomonas reinhardtii (natural protein)
H2 production rate of HydA1, 50 µM ferredoxin reduced with 10 mM sodium dithionite, against PetF (% of the rate with PetF) [1]: 40
H2 production rate of HydA2, 50 µM ferredoxin reduced with 10 mM sodium dithionite (µmol H2 × min^−1 × mg^−1) [2]: 12.6
NADPH-dependent cytochrome c reduction, 40 nM FNR, 5 µM ferredoxin, initial reaction speed (µM cyt c × min^−1) [3]: 121

Substance: ferredoxin Fdx10 from Chlamydomonas reinhardtii (natural protein)
light-dependent H2 production of HydA1 (50 nM, 10 µM ferredoxin) left in the presence of the competitor FNR (50 nM), against the rate without FNR [4]: 43%
NADPH-dependent cytochrome c reduction, 40 nM FNR, 5 µM ferredoxin (µM cyt c × min^−1) [5]: 23.3

Substance: photosynthetic ferredoxin PetF from Chlamydomonas reinhardtii (from UniProt P07839 33-126) (natural protein)
H2 production rate of HydA1, 50 µM ferredoxin reduced with 10 mM sodium dithionite (µmol H2 × min^−1 × mg^−1) [1]: 225
H2 production rate of HydA2, 50 µM ferredoxin reduced with 10 mM sodium dithionite (µmol H2 × min^−1 × mg^−1) [2]: 63.9
NADPH-dependent cytochrome c reduction, 40 nM FNR, 5 µM ferredoxin, initial reaction speed (µM cyt c × min^−1) [3]: 84.2

The next lines start with the values.

H2 production rate of HydA2, 50 µM ferredoxin reduced with 10 mM sodium dithionite, against PetF (% of the rate with PetF) [2]: 10
light-dependent H2 production of HydA1 (50 nM, 10 µM ferredoxin) left in the presence of the competitor FNR (50 nM), against the rate without FNR [4]: 29%
Substance: ferredoxin Fdx3 from Chlamydomonas reinhardtii (natural protein)

H2 production rate of HydA1, 50 µM ferredoxin reduced with 10 mM sodium dithionite, against PetF (% of the rate with PetF) [1]: 14
light-dependent H2 production of HydA1 (50 nM, 10 µM ferredoxin) left in the presence of the competitor FNR (50 nM), against the rate without FNR [4]: 59%
Substance: ferredoxin Fdx7 from Chlamydomonas reinhardtii (natural protein)

light-dependent H2 production of HydA1 (50 nM, 10 µM ferredoxin) left in the presence of the competitor FNR (50 nM), against the rate without FNR [4]: 52%
Substance: ferredoxin Fdx8 from Chlamydomonas reinhardtii (natural protein)

NADPH-dependent cytochrome c reduction, 40 nM FNR, 5 µM ferredoxin (µM cyt c × min^−1) [5]: 34.4
Substance: ferredoxin Fdx11 from Chlamydomonas reinhardtii (natural protein)
